We go through 3 substances from patent US5994310A, “Peptide ligands for affinity purification of human Factor VIII” (Bayer Corporation, priority 1998, dated 1999).

Assay [1] has as its target T1, human Factor VIII (Homo sapiens, UniProt P00451).
T1 construct: (the applicant)
The experiment in a line: Preparative hrFVIII purification by peptide resins, fractions assayed for Factor VIII activity (Coatest VIII:C/4). As to conditions: load KG2DEAE 136 IU; for Elute Total IU / Flow-Through Total IU / Salt Wash Total IU: Coatest. How it is done: Preparative batch synthesis of the preferred sequences was performed using 10 g TSK resin (Toyopearl AF-Amino-650M, TosoHaas, Inc., Montgomeryville, Pa.) as described in Buettner, J., 1996, supra. […] Three injections of an in-process sample of human Factor VIII were contacted with each resin and fractions of flow-through, salt wash and elution were tested for biological activity, protein profile by SDS-PAGE, and target protein identification by Western blot analyses, as described in Buettner, J., 1996, supra. Biological activity was defined as the ability of the column fraction to reconstitute Factor VIII-depleted plasma to thereby activate Factor X to Factor Xa, with quantitation of enzymatic activity by spectrophotometric measurement of cleaved substrate. (Coatest VIII:C/4, Chromogenix, Molndal, Sweden).
FIGS. 4, 5 and 6 show the purification chromatograms for binding of the rhFVIII to SEQ IDs 1, 2 and 3, respectively. In each figure, the bottom HPLC trace is the buffer blank injection; the three other HPLC traces are subsequent injections of the KG2DEAE sample. For each chromatogram, flow-through occurs from t=0-22 minutes; salt wash at t=26-34 minutes; elution at t=44-54 minutes. Each fraction (flow-through, salt wash and elution) was collected and assayed for Factor VIII activity by the above described Coatest assay.

Assay [2] concerns the target T1, human Factor VIII. The assay can be described thus: Secondary chromatography binding assay (ELISA quantitation of column fractions). Conditions: rhFVIII load 10 μg on peptide-resin column; for Elute Total μg: FVIII by ELISA in elution (Buffer C) fraction; for Flow-Through Total μg: FVIII by ELISA in flow-through fraction; for Salt Wash Total μg: FVIII by ELISA in salt wash (Buffer B) fraction. Here is the method:
The secondary chromatography binding assays were performed upon a Michrom Bioresources HPLC (Auburn, Calif.). This binary system has the added advantage of a second injection loop which was outfitted with a 5 ml loop. This allowed addition of a third solvent during the HPLC run. Buffer A was 20 mM Imidazole, pH=7.0, 10 mM CaCl2, 300 mM NaCl, 0.01% Tween 80. Buffer B is the same as buffer A but with 1M NaCl and 1M CaCl2. Elution buffer (Buffer C) is the same as buffer A but with 40% ethylene glycol monomer and 250 mM CaCl2. Absorbance was monitored at 280 nm.
Confirmatory FVIII binding assays were performed in a column chromatographic format on the HPLC described above. Batch synthesized peptide-resin (substitution at 100 μmoles/g) was loaded and washed as described in Buettner, J., 1996, supra. The HPLC method injected the sample onto the column at 80 cm/hr linear velocity, allowed for flow-through of unbound protein, then stepped to 200 cm/hr for the wash with Buffer B (as described above), and then the bound protein eluted with Buffer C (as described above). FIGS. 1, 2 and 3 show the results from contacting a known amount of human Factor VIII to each of the preferred peptide-resins (sequence ID 1, 2 and 3, respectively).
Recombinant FVIII was applied to each column as described above. […] ELISA quantitation utilized a polyclonal antisera as capture antibody adsorbed onto the plate well, application of each fraction allowed the Factor VIII to adhere to the capture antibody. The making and using of polyclonal and monoclonal antibodies is well-know, and within the skill of one of ordinary skill in the art. See generally Antibodies, A Lab Manual, Harlow and Lane, eds., 1988, Cold Spring Harbor. Then a panel of 3 monoclonal antibodies were used to identify the Factor VIII and detection of these antibodies with a secondary-antibody enzyme conjugate allowed accurate quantitation of the Factor VIII. The flow-through fractions from each injection show greater than 96% target protein depletion by these peptide ligands. […] The binding avidity was weak enough to permit recovery of target protein during the elution phase of the chromatography.
Background: An ELISA detects its analyte on a solid surface through an enzyme-linked reagent.

Where no end group is shown, it is not given here.

T1 sequence (P00451 20-2351): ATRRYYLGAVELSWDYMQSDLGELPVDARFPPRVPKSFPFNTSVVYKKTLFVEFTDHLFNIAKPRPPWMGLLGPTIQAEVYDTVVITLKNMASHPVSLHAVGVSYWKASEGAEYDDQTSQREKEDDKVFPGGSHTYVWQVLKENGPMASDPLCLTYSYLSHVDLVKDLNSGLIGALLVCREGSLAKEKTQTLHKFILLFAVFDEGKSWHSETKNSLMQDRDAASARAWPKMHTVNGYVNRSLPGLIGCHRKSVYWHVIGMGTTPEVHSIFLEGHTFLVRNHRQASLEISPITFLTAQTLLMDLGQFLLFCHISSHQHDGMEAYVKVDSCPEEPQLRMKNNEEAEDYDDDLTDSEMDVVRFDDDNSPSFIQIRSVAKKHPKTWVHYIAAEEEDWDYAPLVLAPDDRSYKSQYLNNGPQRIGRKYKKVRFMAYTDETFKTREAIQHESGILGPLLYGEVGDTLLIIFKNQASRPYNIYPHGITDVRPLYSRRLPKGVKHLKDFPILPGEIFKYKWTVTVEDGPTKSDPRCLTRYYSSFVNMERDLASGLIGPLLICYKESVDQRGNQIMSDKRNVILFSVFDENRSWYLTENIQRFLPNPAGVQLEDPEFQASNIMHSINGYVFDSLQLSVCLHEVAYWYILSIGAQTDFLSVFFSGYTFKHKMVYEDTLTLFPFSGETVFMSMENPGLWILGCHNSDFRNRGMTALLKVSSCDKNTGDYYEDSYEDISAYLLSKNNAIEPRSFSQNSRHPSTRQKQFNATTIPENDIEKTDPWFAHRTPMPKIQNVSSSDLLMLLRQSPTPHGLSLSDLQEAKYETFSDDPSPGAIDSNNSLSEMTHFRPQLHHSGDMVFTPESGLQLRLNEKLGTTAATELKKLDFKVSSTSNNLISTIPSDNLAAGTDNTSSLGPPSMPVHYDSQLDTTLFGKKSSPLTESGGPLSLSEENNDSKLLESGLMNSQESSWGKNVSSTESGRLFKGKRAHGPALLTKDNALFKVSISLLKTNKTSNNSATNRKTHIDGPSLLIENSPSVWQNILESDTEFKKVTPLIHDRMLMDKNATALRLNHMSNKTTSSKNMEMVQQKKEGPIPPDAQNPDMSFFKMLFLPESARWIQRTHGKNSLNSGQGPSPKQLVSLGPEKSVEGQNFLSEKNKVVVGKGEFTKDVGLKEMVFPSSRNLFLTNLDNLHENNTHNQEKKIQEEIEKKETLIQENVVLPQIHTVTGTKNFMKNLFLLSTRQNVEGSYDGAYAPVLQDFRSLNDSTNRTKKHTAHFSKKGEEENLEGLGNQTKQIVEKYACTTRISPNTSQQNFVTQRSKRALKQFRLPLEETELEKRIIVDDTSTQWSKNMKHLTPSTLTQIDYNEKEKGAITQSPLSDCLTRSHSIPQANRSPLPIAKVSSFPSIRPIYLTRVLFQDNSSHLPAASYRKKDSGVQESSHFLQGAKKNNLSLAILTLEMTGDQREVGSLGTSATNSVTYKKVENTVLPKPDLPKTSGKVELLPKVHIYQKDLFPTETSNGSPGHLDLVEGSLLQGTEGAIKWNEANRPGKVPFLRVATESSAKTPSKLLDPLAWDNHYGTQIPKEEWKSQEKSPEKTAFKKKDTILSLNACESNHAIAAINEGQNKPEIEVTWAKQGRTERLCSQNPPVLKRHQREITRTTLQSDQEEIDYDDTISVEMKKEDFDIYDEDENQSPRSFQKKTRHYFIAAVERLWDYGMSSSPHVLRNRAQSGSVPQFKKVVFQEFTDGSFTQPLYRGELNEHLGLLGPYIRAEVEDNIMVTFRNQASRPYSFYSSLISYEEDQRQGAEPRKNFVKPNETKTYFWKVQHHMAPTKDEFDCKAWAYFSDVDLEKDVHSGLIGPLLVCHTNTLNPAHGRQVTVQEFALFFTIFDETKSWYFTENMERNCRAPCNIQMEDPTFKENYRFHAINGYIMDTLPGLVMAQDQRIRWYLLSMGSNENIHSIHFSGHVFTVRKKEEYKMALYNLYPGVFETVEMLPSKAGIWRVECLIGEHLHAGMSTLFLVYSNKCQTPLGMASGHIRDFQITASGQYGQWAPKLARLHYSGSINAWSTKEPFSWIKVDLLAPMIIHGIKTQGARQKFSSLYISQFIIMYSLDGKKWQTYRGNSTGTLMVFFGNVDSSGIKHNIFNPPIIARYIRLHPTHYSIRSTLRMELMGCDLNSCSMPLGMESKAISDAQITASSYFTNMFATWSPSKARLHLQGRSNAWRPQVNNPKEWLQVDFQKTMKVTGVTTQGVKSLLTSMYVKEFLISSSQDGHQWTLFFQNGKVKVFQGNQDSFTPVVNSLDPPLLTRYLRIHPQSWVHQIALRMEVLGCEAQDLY

As for “His-Gln-Tyr-Gly-Tyr-His (HQYGYH; not fully specified; printed as His-Gln-Tyr-Gly-Tyr-His)”, in the assay with human Factor VIII [1] (inj 2), the “Elute % Recovery” value worked out at 46%, the Purification worked out at 1.00, the “Elute Total IU” value was 62 IU and the “Flow-Through Total IU” value amounted to 2 IU. In addition, in the assay with human Factor VIII [1] (inj 2), the “Salt Wash Total IU” value is reported as 3 IU. In addition, in the assay with human Factor VIII [1] (inj 3), the “Elute % Recovery” value was 52%, the Purification was determined as 1.53, the “Elute Total IU” value was 71 IU and the “Flow-Through Total IU” value was 1 IU. Moreover, the “Salt Wash Total IU” value in the assay with human Factor VIII [1] (inj 3) was 3 IU. In the assay with human Factor VIII [1] (inj 4), the “Elute % Recovery” value was 55%, the Purification is reported as 1.47, the “Elute Total IU” value was determined as 75 IU and the “Flow-Through Total IU” value is reported as 1 IU. For the same substance, in the assay with human Factor VIII [1] (inj 4), the “Salt Wash Total IU” value turned out to be 3 IU. In the assay with human Factor VIII [2], the “Elute Total μg” value turned out to be 10.31 µg, the “Flow-Through Total μg” value was found to be 0.00 µg and the “Salt Wash Total μg” value was 0.85 µg.
Turning to “His-Ile-Gln-His-Tyr-His (HIQHYH; not fully specified; printed as His-Ile-Gln-His-Tyr-His)”, in the assay with human Factor VIII [1] (inj 2), the “Elute % Recovery” value is on record as 31%, the Purification is recorded as 1.22, the “Elute Total IU” value stood at 42 IU and the “Flow-Through Total IU” value came out at 1 IU. In addition, the “Salt Wash Total IU” value in the assay with human Factor VIII [1] (inj 2) was 4 IU. Moreover, in the assay with human Factor VIII [1] (inj 3), the “Elute % Recovery” value is recorded as 38%, the Purification stood at 1.54, the “Elute Total IU” value was determined as 52 IU and the “Flow-Through Total IU” value was determined as 1 IU. Besides, the “Salt Wash Total IU” value in the assay with human Factor VIII [1] (inj 3) came out at 7 IU. In addition, in the assay with human Factor VIII [1] (inj 4), the “Elute % Recovery” value worked out at 33%, the Purification is on record as 1.48, the “Elute Total IU” value was determined as 45 IU and the “Flow-Through Total IU” value came to 1 IU. Besides, the “Salt Wash Total IU” value in the assay with human Factor VIII [1] (inj 4) came to 9 IU. Further, in the assay with human Factor VIII [2], the “Elute Total μg” value was determined as 7.26 µg, the “Flow-Through Total μg” value came to 0.00 µg and the “Salt Wash Total μg” value amounted to 0.74 µg.
For “Trp-His-Tyr-Tyr-His-Gly (WHYYHG; not fully specified; printed as Trp-His-Tyr-Tyr-His-Gly)”, in the assay with human Factor VIII [1] (inj 2), the “Elute % Recovery” value was found to be 26%, the Purification came to 1.15, the “Elute Total IU” value amounted to 35 IU and the “Flow-Through Total IU” value was determined as 5 IU. Also, the “Salt Wash Total IU” value with human Factor VIII [1] (inj 2) was determined as 2 IU. In addition, in the assay with human Factor VIII [1] (inj 3), the “Elute % Recovery” value is 41%, the Purification was determined as 1.75, the “Elute Total IU” value amounted to 56 IU and the “Flow-Through Total IU” value is on record as 2 IU. Besides, in the assay with human Factor VIII [1] (inj 3), the “Salt Wash Total IU” value is listed as 2 IU. Besides, in the assay with human Factor VIII [1] (inj 4), the “Elute % Recovery” value amounted to 40%, the Purification is 1.64, the “Elute Total IU” value is listed as 54 IU and the “Flow-Through Total IU” value is recorded as 6 IU. Moreover, the “Salt Wash Total IU” value with human Factor VIII [1] (inj 4) was found to be 5 IU. Further, in the assay with human Factor VIII [2], the “Elute Total μg” value is 5.31 µg, the “Flow-Through Total μg” value was determined as 0.03 µg and the “Salt Wash Total μg” value came to 0.14 µg.
